Columns and labels:
wild-type rats [1] = experiment: Immunohistochemistry of Naglu protein in brain tissue after intrathecal administration; format: in vivo; settings: for Naglu immunostaining in cerebral cortex / brain parenchyma: 4 and 24 hours post treatment
Method: (§1) To evaluate biodistribution of the SORT1-binding Naglu fusion proteins, an in vivo study was conducted using wild-type rats subjected to intrathecal administration of vehicle control (PBS), rhNaglu, Naglu-IGFII, Naglu-SPP, Naglu-SapDC or Naglu-tPRGN. Details of the experimental design are provide in Table 9 below. Previous experiments had shown that Naglu-IGFII but not rhNaglu penetrates into brain tissue and is targeted to lysosomes after intrathecal injection. Accordingly, rhNaglu and Naglu-IGFII were utilized in this study as negative and positive controls, respectively.
Rats were sacrificed either 4 or 24 hours post intrathecal administration of the respective fusion protein. Brain tissue samples were collected, fixed in 10% NBF and processed for paraffin embedding. 5 μm paraffin sections from each tissue assayed were subjected to immunostaining using an anti-human Naglu antibody.

Naglu KO mice [2] = experiment: Immunohistochemical staining of Lamp-1, GFAP and Iba-1 in brain and liver; format: in vivo; settings: intrathecal
Method: (§2) To evaluate the in vivo activity of Naglu-SPP and its efficacy as a therapeutic for the treatment of lysosomal storage diseases, particularly San B, Naglu-SPP was administered to Naglu KO mice via intrathecal injection. Intrathecal administration of Naglu-IGFII served as a positive control. The experimental conditions used for this assay are described in Tables 10 and 11 below.
The lysosomal targeting of Naglu-SPP and Naglu-IGFII was further examined by immunohistochemical analysis. Tissue samples were collected, fixed in 10% NBF and processed for paraffin embedding. For each tissue assayed, 5 μm paraffin sections was subjected to immunostaining using antibodies against lamp lysosomal associated membrane protein 1 (Lamp-1), glial fibrillary acidic protein (GFAP) and the ionized calcium-binding adapter molecule 1 (Iba-1).

Naglu KO mice [3] = experiment: Sanfillipo B specific biomarkers in brain by LC/MS; format: in vivo; settings: intrathecal, 520 mg/kg brain, especially 2× weekly and 3× weekly
Method: as §2
Using the same LC/MS technology as used for the quantification of heparin sulfate (see above), the presence of Sanfillipo B specific biomarkers in brains of treated KO mice were evaluated. Naglu deficiency causes the accumulation of certain heparin sulfate degradation products (presented in FIGS. 13A-C) which are natural substrates of Naglu. These biomarkers are the most relevant indications for Naglu deficiency.

Naglu KO mice [4] = experiment: Total glycosaminoglycan (GAG) in liver and brain, dimethylmethylene blue; format: in vivo; settings: intrathecal, 520 mg/kg brain; brain significant in 2× and 3× weekly groups
Method: as §2
The activity of Naglu-SPP and Naglu-IGFII in vivo was also evaluated by examining the intracellular accumulation of natural substrates of Naglu in treated mice. One such assay was designed to evaluate the total concentration of glycosaminoglycan (GAG) in liver (FIG. 11A) and brain (FIG. 11B) tissue of treated mice in accordance with de Jong et al. (Clin Chem 38(6):803-807, 1992). Briefly, liver tissue was homogenized and total GAG quantified using dimethylmethylene blue. Brain tissue was homogenized and then incubated with pronase and benzonase to break down protein and nucleic acid. Total GAG was then extracted by passing the brain homogenate through a DEAE column. The eluate was further buffer exchanged through a desalting column, and the total GAG content was quantified using dimethylmethylene blue. […] The reduction of total GAG amount in brain tissue was significant in the 2× weekly as well as the 3× weekly treatment groups.

wild-type rats [5] = experiment: Naglu enzyme activity in liver and brain after intrathecal administration (biodistribution); format: in vivo; settings: 385 ug/animal; for Naglu enzyme activity in brain: 4 or 24 hours post dose
Method: as §1
Rats were sacrificed either 4 or 24 hours post intrathecal administration of the respective fusion protein and total Naglu enzyme activity in the animals' liver and brain tissue was determined using a well-established enzyme activity assay (FIGS. 7A and B). Briefly, brain and liver tissue homogenates were prepared and incubated in the presence of a Naglu specific substrate, i.e., methylumbelliferyl-N-acetyl-α-D-glucosainide; accumulation of cleavage product was then measured by examining fluorescence intensity at 360/460 nm (excitation/emission) using a fluorescent plate reader.

Naglu KO mice [6] = experiment: Naglu enzyme activity in tissues of Naglu KO mice after intrathecal administration; format: in vivo; settings: 520 mg/kg brain, 24 hrs post final dose
Method: as §2
24 hours after intrathecal administration of each respective fusion protein, Naglu KO mice were sacrificed and Naglu enzyme activity in various tissues was assayed. Total Naglu activity was evaluated using a well-established enzyme activity assay. Briefly, tissue homogenate was incubated in the presence of the Naglu specific substrate methylumbelliferyl-N-acetyl-α-D-glucosainide, and accumulation of cleavage product was measured by examining fluorescence intensity at 360/460 nm (excitation/emission) using a fluorescent plate reader. […] This increase in enzyme activity was observed over the duration of the 3 week treatment period.

Naglu KO mice [7] = experiment: Heparan sulfate in brain by LC/MS; format: in vivo; settings: intrathecal, 520 mg/kg brain, 2× weekly and 3× weekly
Method: as §2
In a second assay, we evaluation the total amount of heparan sulfate in the brain of treated KO mice. […] To measure heparan sulfate in mouse brain tissue, a highly sensitive LC/MS method was applied (Lawrence et al, 2012, Nat Chem Biol. 2012 Jan. 8; 8(2):197-204). Briefly, total GAG from brain tissue was extracted by a DEAE column and a desalting column, and then dried and weighted. The extracted GAG was treated with heparin lyases that specifically release unique mono, di and tri saccharides of heparan sulfate, and the sample was then analyzed by LC/MS. The released saccharides were identified and quantified using commercially available saccharide standards of heparan sulfate degradation.

[8] = system: SORT1 overexpressing cells; experiment: Cellular uptake in Sortilin overexpressing cells (intracellular Naglu enzyme activity); format: cell-based; settings: absence of Neurotensin
Method: A cell line was established overexpressing SORT1, using standard technologies known in the art. […] After a specified period of time, the supernatant was removed and the cells were washed repeatedly. Then, cells were lysed and each sample was assayed for Naglu enzyme activity.

Row | Molecule | Naglu immunostaining in cerebral cortex / brain parenchyma (wild-type rats [1]) | Naglu immunostaining in cerebellum and hippocampal region (wild-type rats [1]; 24 hours post injection) | Lamp-1 immunostaining in brain (cerebral cortex, cerebellum, thalamus, striatum, white matter) (Naglu KO mice [2]; 2× weekly and 3× weekly) | Lamp-1 immunoreactivity in liver (Naglu KO mice [2]; three weekly deliveries) | GFAP staining in cerebral cortex and cerebellum (astrocytes) (Naglu KO mice [2]; three weekly injections) | Iba-1 staining in cerebral cortex and cerebellum (microglial cells) (Naglu KO mice [2]; three weekly injections) | accumulation of three GAG cleavage products (San B biomarkers) in brain (Naglu KO mice [3]) | total GAG concentration in liver and brain tissue vs vehicle control (Naglu KO mice [4]) | rank of Naglu enzyme activity in brain among treatments (wild-type rats [5]) | Naglu enzyme activity in brain (wild-type rats [5]) | Naglu activity in liver and brain tissue vs vehicle control (Naglu KO mice [6]) | total amount of heparan sulfate accumulation in brain tissue (Naglu KO mice [7]) | Bmax of binding/uptake [8] | cellular internalization (intracellular Naglu activity) [8]
1 | Naglu-IGFII: Fusion protein of human Naglu and IGF-II residues 8-67 via GAG3 linker; SEQ ID NO:20, SEQ ID NO:25; positive control (protein, Fusion protein of human Naglu and IGF-II residues 8-67 via GAG3 linker; positive control) MEAVAVAAAVGVLLLAGAGGAAGDEAREAAAVRALVARLLGPGPAADFSVSVERALAAKPGLDTYSLGGGGAARVRVRGSTGVAAAAGLHRYLRDFCGCHVAWSGSQLRLPRPLPAVPGELTEATPNRYRYYQNVCTQSYSFVWWDWARWEREIDWMALNGINLALAWSGQEAIWQRVYLALGLTQAEINEFFTGPAFLAWGRMGNLHTWDGPLPPSWHIKQLYLQHRVLDQMRSFGMTPVLPAFAGHVPEAVTRVFPQVNVTKMGSWGHFNCSYSCSFLLAPEDPIFPIIGSLFLRELIKEFGTDHIYGADTFNEMQPPSSEPSYLAAATTAVYEAMTAVDTEAVWLLQGWLFQHQPQFWGPAQIRAVLGAVPRGRLLVLDLFAESQPVYTRTASFQGQPFIWCMLHNFGGNHGLFGALEAVNGGPEAARLFPNSTMVGTGMAPEGISQNEVVYSLMAELGWRKDPVPDLAAWVTSFAARRYGVSHPDAGAAWRLLLRSVYNCSGEACRGHNRSPLVRRPSLQMNTSIWYNRSDVFEAWRLLLTSAPSLATSPAFRYDLLDLTRQAVQELVSLYYEEARSAYLSKELASLLRAGGVLAYELLPALDEVLASDSRFLLGSWLEQARAAAVSEAEADFYEQNSRYQLTLWGPEGNILDYANKQLAGLVANYYTPRWRLFLEALVDSVAQGIPFQQHQFDKNVFQLEQAFVLSKQRYPSQPRGDTVDLAKKIFLKYYPRWVAGSWGAPGGGGGAAAAAGGGGGGAPGGGGGAAAAAGGGGGGAPGGGGGAAAAAGGGGGGAPLCGGELVDTLQFVCGDRGFYFSRPASRVSRRSRGIVEECCFRSCDLALLETYCATPAKSE | positive staining | strong Naglu signal | decrease | reduced significantly | reduced signal | microglial cells had a reduced size and a reduced number of processes | dramatic decrease | significant reduction | highest activity | markedly elevated levels | dramatic increase | strong reduction | – | –
2 | Naglu-tPRGN: Fusion protein of human Naglu and Progranulin C-terminal peptide (tPRGN) via GAG3 linker; SEQ ID NO:18, SEQ ID NO:23 (protein) MEAVAVAAAVGVLLLAGAGGAAGDEAREAAAVRALVARLLGPGPAADFSVSVERALAAKPGLDTYSLGGGGAARVRVRGSTGVAAAAGLHRYLRDFCGCHVAWSGSQLRLPRPLPAVPGELTEATPNRYRYYQNVCTQSYSFVWWDWARWEREIDWMALNGINLALAWSGQEAIWQRVYLALGLTQAEINEFFTGPAFLAWGRMGNLHTWDGPLPPSWHIKQLYLQHRVLDQMRSFGMTPVLPAFAGHVPEAVTRVFPQVNVTKMGSWGHFNCSYSCSFLLAPEDPIFPIIGSLFLRELIKEFGTDHIYGADTFNEMQPPSSEPSYLAAATTAVYEAMTAVDTEAVWLLQGWLFQHQPQFWGPAQIRAVLGAVPRGRLLVLDLFAESQPVYTRTASFQGQPFIWCMLHNFGGNHGLFGALEAVNGGPEAARLFPNSTMVGTGMAPEGISQNEVVYSLMAELGWRKDPVPDLAAWVTSFAARRYGVSHPDAGAAWRLLLRSVYNCSGEACRGHNRSPLVRRPSLQMNTSIWYNRSDVFEAWRLLLTSAPSLATSPAFRYDLLDLTRQAVQELVSLYYEEARSAYLSKELASLLRAGGVLAYELLPALDEVLASDSRFLLGSWLEQARAAAVSEAEADFYEQNSRYQLTLWGPEGNILDYANKQLAGLVANYYTPRWRLFLEALVDSVAQGIPFQQHQFDKNVFQLEQAFVLSKQRYPSQPRGDTVDLAKKIFLKYYPRWVAGSWGAPGGGGGAAAAAGGGGGGAPGGGGGAAAAAGGGGGGAPGGGGGAAAAAGGGGGGAPTKCLRREAPRWDAPLRDPALRQLL | little to no Naglu signal | – | – | – | – | – | – | – | – | markedly elevated levels | – | – | 2060 nmol/h/mg | effectively internalized
3 | Naglu-SapDC: Fusion protein of human Naglu and Prosaposin DC peptide (SapDC) via GAG3 linker; SEQ ID NO:19, SEQ ID NO:24 (protein) MEAVAVAAAVGVLLLAGAGGAAGDEAREAAAVRALVARLLGPGPAADFSVSVERALAAKPGLDTYSLGGGGAARVRVRGSTGVAAAAGLHRYLRDFCGCHVAWSGSQLRLPRPLPAVPGELTEATPNRYRYYQNVCTQSYSFVWWDWARWEREIDWMALNGINLALAWSGQEAIWQRVYLALGLTQAEINEFFTGPAFLAWGRMGNLHTWDGPLPPSWHIKQLYLQHRVLDQMRSFGMTPVLPAFAGHVPEAVTRVFPQVNVTKMGSWGHFNCSYSCSFLLAPEDPIFPIIGSLFLRELIKEFGTDHIYGADTFNEMQPPSSEPSYLAAATTAVYEAMTAVDTEAVWLLQGWLFQHQPQFWGPAQIRAVLGAVPRGRLLVLDLFAESQPVYTRTASFQGQPFIWCMLHNFGGNHGLFGALEAVNGGPEAARLFPNSTMVGTGMAPEGISQNEVVYSLMAELGWRKDPVPDLAAWVTSFAARRYGVSHPDAGAAWRLLLRSVYNCSGEACRGHNRSPLVRRPSLQMNTSIWYNRSDVFEAWRLLLTSAPSLATSPAFRYDLLDLTRQAVQELVSLYYEEARSAYLSKELASLLRAGGVLAYELLPALDEVLASDSRFLLGSWLEQARAAAVSEAEADFYEQNSRYQLTLWGPEGNILDYANKQLAGLVANYYTPRWRLFLEALVDSVAQGIPFQQHQFDKNVFQLEQAFVLSKQRYPSQPRGDTVDLAKKIFLKYYPRWVAGSWGAPGGGGGAAAAAGGGGGGAPGGGGGAAAAAGGGGGGAPGGGGGAAAAAGGGGGGAPDGGFCEVCKKLVGYLDRNLEKNSTKQEILAALEKGCSFLPDPYQKQCDQFVAEYEPVLIEILVEVMDPSFVCLKIGACPSAHKPLLGTEKCIWGPSYWCQNTETAAQCNAVEHCKRHVWN | little to no Naglu signal | – | – | – | – | – | – | – | – | markedly elevated levels | – | – | – | only a very limited increase
